Here are results for 13 molecules from patent US11833164B2, “Methods of treating Fabry disease in patients having a mutation in the GLA gene” (Amicus Therapeutics, Inc., priority 2019, dated 2023).

Where a chain is given by its changes, count along the chain named. In names and notes the source's numbering stands.

This assay concerns mutant form of α-Gal A expressed in HEK-293 cells. As to the kind of experiment: HEK assay (GLP HEK / Migalastat Amenability Assay): α-Gal A activity in lysates of transiently transfected HEK-293 cells incubated with or without 10 μM migalastat. Particulars: for Absolute increase (% WT): 10 μM migalastat versus baseline; for Relative increase: 10 μM migalastat α-Gal A activity relative to baseline; for 10 μM migalastat α-Gal A activity (% WT): 5 days; for 10 μM migalastat α-Gal A activity (% WT) / Baseline α-Gal A activity (% WT): percentage of baseline wild-type α-Gal A activity; for 10 μM migalastat α-Gal A activity (% WT) / Baseline α-Gal A activity (% WT) / Baseline α-Gal A activity / 10 μM migalastat α-Gal A activity: mean ± SEM; for Baseline α-Gal A activity (% WT): absence of migalastat; for Baseline α-Gal A activity / 10 μM migalastat α-Gal A activity: lysates of HEK-293 cells transfected with the mutant form; for Baseline α-Gal A activity: incubated 5 days in the absence of migalastat; for 10 μM migalastat α-Gal A activity: incubated 5 days with 10 μM migalastat. The class given is cell-based, human. The procedure, abridged: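 Activity reported as 4-MU released (nmol/mg/hr), mean±SEM, from lysates of transiently transfected HEK-293 cells expressing mutant α-Gal A, cultured with or without 10 μM migalastat.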

B1: G128A (protein)
chain: MQLRNPELHLGCALALRFLALVSWDIPGARALDNGLARTPTMGWLHWERFMCNLDCQEEPDSCISEKLFMEMAELMVSEGWKDAGYEYLCIDDCWMAPQRDSEGRLQADPQRFPHGIRQLANYVHSKALKLGIYADVGNKTCAGFPGSFGYYDIDAQTFADWGVDLLKFDGCYCDSLENLADGYKHMSLALNRTGRSIVYSCEWPLYMWPFQKPNYTEIRQYCNHWRNFADIDDSWKSIKSILDWTSFNQERIVDVAGPGGWNDPDMLVIGNFGLSWNQQVTQMALWAIMAAPLFMSNDLRHISPQAKALLQDKDVIAINQDPLGKQGYQLRQGDNFEVWERPLSGLAWAVAMINRQEIGGPRSYTIAVASLGKGVACNPACFITQLLPVKRKLGFYEWTSRLRSHINPTGTVLLQLENTMQMSLKDLL
For B1, the “Absolute increase (% WT)” value came to 5.1 % WT, the Relative increase is listed as 1.2, the “10 μM migalastat α-Gal A activity (% WT)” value turned out to be 25.9 ± 2.3 % WT and the “Baseline α-Gal A activity (% WT)” value came out at 20.8 ± 2 % WT. Further, the “Baseline α-Gal A activity” value amounted to 8484 ± 872 nmol/mg/h and the “10 μM migalastat α-Gal A activity” value came to 10204 ± 703 nmol/mg/h.

B2: I133L (protein)
chain: B1 chain with A128G, I133L
Regarding B2, the “Absolute increase (% WT)” value is recorded as 17.5 % WT, the Relative increase worked out at 1.3, the “10 μM migalastat α-Gal A activity (% WT)” value turned out to be 78.2 ± 3.1 % WT and the “Baseline α-Gal A activity (% WT)” value is 60.7 ± 2.7 % WT. Moreover, the “Baseline α-Gal A activity” value amounted to 24431 ± 1181 nmol/mg/h and the “10 μM migalastat α-Gal A activity” value turned out to be 31550 ± 1420 nmol/mg/h.

B3: L131V (protein)
chain: B1 chain with A128G, L131V
As to B3, the “Absolute increase (% WT)” value stood at 12.7 % WT, the Relative increase amounted to 1.3, the “10 μM migalastat α-Gal A activity (% WT)” value was found to be 53.2 ± 5.3 % WT and the “Baseline α-Gal A activity (% WT)” value is reported as 40.5 ± 2.8 % WT. Besides, the “Baseline α-Gal A activity” value came to 18644 ± 1664 nmol/mg/h and the “10 μM migalastat α-Gal A activity” value amounted to 24913 ± 3151 nmol/mg/h.

B4: K130M (protein)
chain: B1 chain with A128G, K130M
Consider B4, for which the “Absolute increase (% WT)” value was found to be 10.9 % WT, the Relative increase stood at 1.3, the “10 μM migalastat α-Gal A activity (% WT)” value was determined as 41.4 ± 2.6 % WT and the “Baseline α-Gal A activity (% WT)” value is listed as 30.5 ± 2.1 % WT. In addition, the “Baseline α-Gal A activity” value worked out at 12335 ± 890 nmol/mg/h and the “10 μM migalastat α-Gal A activity” value turned out to be 16496 ± 921 nmol/mg/h.

B5: I133T (protein)
chain: B1 chain with A128G, I133T
Regarding B5, the “Absolute increase (% WT)” value amounted to 15.0 % WT, the Relative increase is 2.4, the “10 μM migalastat α-Gal A activity (% WT)” value is given as 25.8 ± 1.1 % WT and the “Baseline α-Gal A activity (% WT)” value turned out to be 10.8 ± 1 % WT. In addition, the “Baseline α-Gal A activity” value amounted to 4362 ± 397 nmol/mg/h and the “10 μM migalastat α-Gal A activity” value came out at 10255 ± 335 nmol/mg/h.

B6: K130N (protein)
chain: B1 chain with A128G, K130N
For the molecule B6, the “Absolute increase (% WT)” value was determined as 10.1 % WT, the Relative increase was determined as 1.5, the “10 μM migalastat α-Gal A activity (% WT)” value is on record as 31.5 ± 3 % WT and the “Baseline α-Gal A activity (% WT)” value came out at 21.5 ± 1.9 % WT. Further, the “Baseline α-Gal A activity” value is 8597 ± 678 nmol/mg/h and the “10 μM migalastat α-Gal A activity” value was 12595 ± 989 nmol/mg/h.

B7: A135S (protein)
chain: B1 chain with A128G, A135S
For B7, the “Absolute increase (% WT)” value was found to be 12.2 % WT, the Relative increase came to 1.3, the “10 μM migalastat α-Gal A activity (% WT)” value came to 57.9 ± 3.2 % WT and the “Baseline α-Gal A activity (% WT)” value came to 45.6 ± 2.9 % WT. In addition, the “Baseline α-Gal A activity” value was found to be 16777 ± 897 nmol/mg/h and the “10 μM migalastat α-Gal A activity” value is 21383 ± 1125 nmol/mg/h.

B8: A135G (protein)
chain: B1 chain with A128G, A135G
For the molecule B8, the “Absolute increase (% WT)” value is 16.1 % WT, the Relative increase was determined as 1.2, the “10 μM migalastat α-Gal A activity (% WT)” value is on record as 90 ± 3.6 % WT and the “Baseline α-Gal A activity (% WT)” value stood at 73.9 ± 3.8 % WT. Also, the “Baseline α-Gal A activity” value stood at 29959 ± 2193 nmol/mg/h and the “10 μM migalastat α-Gal A activity” value was found to be 36552 ± 2309 nmol/mg/h.

B9: L129V (protein)
chain: B1 chain with A128G, L129V
B9: the “Absolute increase (% WT)” value stood at 16.4 % WT, the Relative increase amounted to 1.5, the “10 μM migalastat α-Gal A activity (% WT)” value is on record as 48.1 ± 4.5 % WT and the “Baseline α-Gal A activity (% WT)” value worked out at 31.8 ± 3.3 % WT. Also, the “Baseline α-Gal A activity” value was determined as 12614 ± 1265 nmol/mg/h and the “10 μM migalastat α-Gal A activity” value is 19488 ± 1603 nmol/mg/h.

B10: A135E (protein)
chain: B1 chain with A128G, A135E
In the case of B10, the “Absolute increase (% WT)” value is listed as 7.4 % WT, the Relative increase is 1.3, the “10 μM migalastat α-Gal A activity (% WT)” value is on record as 32.5 ± 1.6 % WT and the “Baseline α-Gal A activity (% WT)” value was 25.1 ± 1.5 % WT. Besides, the “Baseline α-Gal A activity” value worked out at 10143 ± 752 nmol/mg/h and the “10 μM migalastat α-Gal A activity” value was determined as 12954 ± 678 nmol/mg/h.

B11: K130Q (protein)
chain: B1 chain with A128G, K130Q
With B11, the “Absolute increase (% WT)” value stood at 12.0 % WT, the Relative increase is reported as 1.4, the “10 μM migalastat α-Gal A activity (% WT)” value was determined as 47.8 ± 3.1 % WT and the “Baseline α-Gal A activity (% WT)” value turned out to be 35.8 ± 2.6 % WT. For the same molecule, the “Baseline α-Gal A activity” value turned out to be 11880 ± 450 nmol/mg/h and the “10 μM migalastat α-Gal A activity” value is 16001 ± 701 nmol/mg/h.

B12: A135T (protein)
chain: B1 chain with A128G, A135T
Take B12: the “Absolute increase (% WT)” value is recorded as 23.2 % WT, the Relative increase is 2.4, the “10 μM migalastat α-Gal A activity (% WT)” value was determined as 40.5 ± 3.4 % WT and the “Baseline α-Gal A activity (% WT)” value is given as 17.4 ± 1.3 % WT. Also, the “Baseline α-Gal A activity” value is 7906 ± 694 nmol/mg/h and the “10 μM migalastat α-Gal A activity” value was 18890 ± 2092 nmol/mg/h.

B13: I133V (protein)
chain: B1 chain with A128G, I133V
On to B13, for which the “Absolute increase (% WT)” value came to 21.9 % WT, the Relative increase is listed as 1.2, the “10 μM migalastat α-Gal A activity (% WT)” value is listed as 118.1 ± 5.1 % WT and the “Baseline α-Gal A activity (% WT)” value is 96.2 ± 3.7 % WT. Further, the “Baseline α-Gal A activity” value is 38738 ± 1624 nmol/mg/h and the “10 μM migalastat α-Gal A activity” value was determined as 47299 ± 1885 nmol/mg/h.
